From patent US20220177576A1 (DENALI THERAPEUTICS, published 2022)

Molecular target: T1, human TREM2 expressed on HEK293-H6 cells (human, UniProt Q9NZC2 19-230)
T1 construct: Wild type human TREM2 stably co-expressed with DAP12 in HEK 293 cells (clone HEK293-H6); also called Human TREM2 HEK; TREM2 expressed by HEK293-H6 cells
T1 sequence: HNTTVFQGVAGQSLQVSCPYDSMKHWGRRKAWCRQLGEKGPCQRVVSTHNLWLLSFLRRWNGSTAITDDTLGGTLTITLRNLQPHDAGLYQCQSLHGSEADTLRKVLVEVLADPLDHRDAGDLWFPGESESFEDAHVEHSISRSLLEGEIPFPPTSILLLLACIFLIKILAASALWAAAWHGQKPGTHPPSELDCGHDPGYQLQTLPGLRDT
Assay: flow cytometry, dose titration on HEK 293 cells expressing human TREM2 (TREM2-expressing HEK)
Description: After incubation, the cells were centrifuged and washed in FACS buffer (PBS+0.5% BSA) twice. Mixed cells were resuspended in FACS buffer with human Trustain FcX solution (Biolegend, Catalog No. 422302) at a density of 10⁶/mL per cell line. The mixed cell lines were seeded at 200,000 cells per well in a 96-well round-bottom plate and incubated for 20 minutes at room temperature. After incubation, the cells were centrifuged and incubated with a dose titration of anti-TREM2 antibodies for 45 minutes on ice. After incubation, the cells were centrifuged and washed with FACS buffer three times. The cells were then incubated with secondary antibody (Alexa Fluor 647 AffiniPure F(ab′)2 Fragment Goat Anti-human IgG(H+L), Jackson ImmunoResearch Laboratories, Catalog No. 109-606-088, 1:800 dilution) for 30 minutes on ice. After incubation, the cells were washed with FACS buffer three times, resuspended in 100 μL of FACS buffer, and analyzed by flow cytometry (BD FACSCanto II, San Jose, Calif.), for which 30,000 events were obtained for each sample. Mean fluorescence intensity per cells were calculated by FlowJo software and used for generating dose response binding curve.

EC50 (read off the curve): ~400 pM
B1: TREM2 Ab (antibody, human IgG1, kappa, L234A L235A, V domains shown)
VH: EVQLVESGGGLVQPGGSLRLSCAASGFTFTDFYMSWVRQAPGKGLEWVSVIRNKANAYTAGYNPSVKGRFTISRDNSKNTLYLQMNSLRAEDTAVYYCARLTYGFDYWGQGTLVTVSS
VL: DIVMTQTPLSLPVTPGEPASISCQSSKSLLHSTGKTYLNWYLQKPGQSPQLLIYWMSTRASGVPDRFSGSGSGTDFTLKISRVEAEDVGVYYCQQFLEYPFTFGQGTKVEIKR
notes: also called corresponding anti-TREM2 antibody; TREM2 IgG
